# PMC10002728
# Columns and labels:
# Assay in all cases: SPR
# [1] = target: FbpC-C R248A (Borrelia hermsii strain HS1)
# [2] = target: B. hermsii strain HS1 FbpC C-terminal complement inhibitory domain, residues 212-374 (Borrelia hermsii strain HS1)
# [3] = target: FbpC-C H252A (Borrelia hermsii strain HS1)
Binder,Kd [1] [nM],koff [1] [s⁻¹],kon [1] [M⁻¹ s⁻¹],Kd [2] [nM],koff [2] [s⁻¹],kon [2] [M⁻¹ s⁻¹],Kd [3] [nM],koff [3] [s⁻¹],kon [3] [M⁻¹ s⁻¹]
"human complement C1r, zymogen form (enzyme) SIPIPQKLFGEVTSPLFPKPYPNNFETTTVITVPTGYRVKLVFQQFDLEPSEGCFYDYVKISADKKSLGRFCGQLGSPLGNPPGKKEFMSQGNKMLLTFHTDFSNEENGTIMFYKGFLAYYQAVDLDECASRSKSGEEDPQPQCQHLCHNYVGGYFCSCRPGYELQEDTHSCQAECSSELYTEASGYISSLEYPRSYPPDLRCNYSIRVERGLTLHLKFLEPFDIDDHQQVHCPYDQLQIYANGKNIGEFCGKQRPPDLDTSSNAVDLLFFTDESGDSRGWKLRYTTEIIKCPQPKTLDEFTIIQNLQPQYQFRDYFIATCKQGYQLIEGNQVLHSFTAVCQDDGTWHRAMPRCKIKDCGQPRNLPNGDFRYTTTMGVNTYKARIQYYCHEPYYKMQTRAGSRESEQGVYTCTAQGIWKNEQKGEKIPRCLPVCGKPVNPVEQRQRIIGGQKAKMGNFPWQVFTNIHGRGGGALLGDRWILTAAHTLYPKEHEAQSNASLDVFLGHTNVEELMKLGNHPIRRVSVHPDYRQDESYNFEGDIALLELENSVTLGPNLLPICLPDNDTFYDLGLMGYVSGFGVMEEKIAHDLRFVRLPVANPQACENWLRGKNRMDVFSQNMFCAGHPSLKQDACQGDSGGVFAVRDPNTDRWVATGIVSWGIGCSRGYGFYTKVLNYVDWIKKEMEEED",13,0.00063,69000,1.2,5.4e-05,44000,–,–,–
"human complement C1r, activated form (enzyme) SIPIPQKLFGEVTSPLFPKPYPNNFETTTVITVPTGYRVKLVFQQFDLEPSEGCFYDYVKISADKKSLGRFCGQLGSPLGNPPGKKEFMSQGNKMLLTFHTDFSNEENGTIMFYKGFLAYYQAVDLDECASRSKSGEEDPQPQCQHLCHNYVGGYFCSCRPGYELQEDTHSCQAECSSELYTEASGYISSLEYPRSYPPDLRCNYSIRVERGLTLHLKFLEPFDIDDHQQVHCPYDQLQIYANGKNIGEFCGKQRPPDLDTSSNAVDLLFFTDESGDSRGWKLRYTTEIIKCPQPKTLDEFTIIQNLQPQYQFRDYFIATCKQGYQLIEGNQVLHSFTAVCQDDGTWHRAMPRCKIKDCGQPRNLPNGDFRYTTTMGVNTYKARIQYYCHEPYYKMQTRAGSRESEQGVYTCTAQGIWKNEQKGEKIPRCLPVCGKPVNPVEQRQRIIGGQKAKMGNFPWQVFTNIHGRGGGALLGDRWILTAAHTLYPKEHEAQSNASLDVFLGHTNVEELMKLGNHPIRRVSVHPDYRQDESYNFEGDIALLELENSVTLGPNLLPICLPDNDTFYDLGLMGYVSGFGVMEEKIAHDLRFVRLPVANPQACENWLRGKNRMDVFSQNMFCAGHPSLKQDACQGDSGGVFAVRDPNTDRWVATGIVSWGIGCSRGYGFYTKVLNYVDWIKKEMEEED",0.19,9.4e-06,45000,0.3,1.4e-05,48000,2.4,0.00012,51000
